Data published in publication PMC6003625 (Journal of molecular biology, 2018).

Target: Nup159-Dbp5-Mg2+mantADP complex (S. cerevisiae | , UniProt P20449 1-482; P40477 1-1460)
Experiment: stopped-flow kinetics of mantADP dissociation

Nup159-Dbp5-Mg2+mantADP complex, sequence (P20449 whole entry, chain 1 of 2): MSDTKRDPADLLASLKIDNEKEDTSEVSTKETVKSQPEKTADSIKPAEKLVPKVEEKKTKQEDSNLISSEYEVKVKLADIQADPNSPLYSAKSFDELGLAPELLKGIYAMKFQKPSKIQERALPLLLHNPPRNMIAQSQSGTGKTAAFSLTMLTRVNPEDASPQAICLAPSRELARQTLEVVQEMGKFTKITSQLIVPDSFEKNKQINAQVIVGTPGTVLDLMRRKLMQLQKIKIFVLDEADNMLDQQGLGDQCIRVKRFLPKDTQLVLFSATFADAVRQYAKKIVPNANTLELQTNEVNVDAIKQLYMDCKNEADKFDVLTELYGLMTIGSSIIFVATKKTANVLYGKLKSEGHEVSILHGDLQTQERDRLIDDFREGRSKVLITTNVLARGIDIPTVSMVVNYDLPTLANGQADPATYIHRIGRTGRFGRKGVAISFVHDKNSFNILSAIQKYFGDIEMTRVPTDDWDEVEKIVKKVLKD
Nup159-Dbp5-Mg2+mantADP complex, sequence (P40477 whole entry, chain 2 of 2): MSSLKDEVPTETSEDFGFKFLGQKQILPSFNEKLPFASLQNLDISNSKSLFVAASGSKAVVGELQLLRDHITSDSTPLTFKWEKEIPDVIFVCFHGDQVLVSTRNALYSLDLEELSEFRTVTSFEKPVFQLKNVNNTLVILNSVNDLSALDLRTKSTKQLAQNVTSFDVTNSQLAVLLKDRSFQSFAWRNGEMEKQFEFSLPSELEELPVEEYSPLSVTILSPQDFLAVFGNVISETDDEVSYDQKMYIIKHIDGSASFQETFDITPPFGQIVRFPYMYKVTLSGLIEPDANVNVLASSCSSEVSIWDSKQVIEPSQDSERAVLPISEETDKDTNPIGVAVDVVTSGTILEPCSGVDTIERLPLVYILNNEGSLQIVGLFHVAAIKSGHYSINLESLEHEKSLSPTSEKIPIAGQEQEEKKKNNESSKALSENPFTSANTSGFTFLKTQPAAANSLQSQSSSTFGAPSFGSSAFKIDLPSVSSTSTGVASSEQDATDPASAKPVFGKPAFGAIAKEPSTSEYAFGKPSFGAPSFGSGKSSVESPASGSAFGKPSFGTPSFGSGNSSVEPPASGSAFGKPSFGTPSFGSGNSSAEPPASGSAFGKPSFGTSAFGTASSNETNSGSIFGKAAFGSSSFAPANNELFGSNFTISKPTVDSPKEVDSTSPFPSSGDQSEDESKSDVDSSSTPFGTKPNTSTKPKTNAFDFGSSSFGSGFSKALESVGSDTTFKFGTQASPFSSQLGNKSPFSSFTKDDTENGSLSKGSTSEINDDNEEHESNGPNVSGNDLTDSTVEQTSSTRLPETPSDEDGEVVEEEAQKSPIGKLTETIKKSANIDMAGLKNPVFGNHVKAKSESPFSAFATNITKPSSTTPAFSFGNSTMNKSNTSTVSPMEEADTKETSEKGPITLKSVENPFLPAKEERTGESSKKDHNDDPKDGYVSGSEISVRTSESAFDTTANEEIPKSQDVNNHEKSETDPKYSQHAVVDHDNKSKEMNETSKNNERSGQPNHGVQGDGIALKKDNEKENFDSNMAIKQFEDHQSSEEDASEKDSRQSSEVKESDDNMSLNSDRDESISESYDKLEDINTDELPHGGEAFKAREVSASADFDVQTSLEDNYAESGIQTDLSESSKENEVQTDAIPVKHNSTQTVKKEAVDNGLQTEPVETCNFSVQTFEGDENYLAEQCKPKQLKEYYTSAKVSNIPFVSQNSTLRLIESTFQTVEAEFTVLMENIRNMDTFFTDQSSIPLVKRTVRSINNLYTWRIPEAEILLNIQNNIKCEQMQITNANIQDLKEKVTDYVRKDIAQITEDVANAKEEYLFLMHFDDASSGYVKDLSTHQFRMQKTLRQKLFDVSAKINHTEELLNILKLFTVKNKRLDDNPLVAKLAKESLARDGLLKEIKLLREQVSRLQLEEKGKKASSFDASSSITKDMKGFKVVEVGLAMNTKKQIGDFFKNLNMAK

B1: Gle1 (natural protein, UniProt Q12315 1-538, looked up)
chain: MRFVFDEVFNSDTDSPEFEETCSTTSSTSSQCPTPEPSPAIKLPSFTKVGTKKLVNESVVILDPALENALRDLNLQSKLIPINEPIVAASSIIVPHSTNMPLPRASHSSLLDNAKNSNATAPLLEAIEESFQRKMQNLVLANQKEIQSIRENKRRVEEQRKRKEEEERKRKEAEEKAKREQELLRQKKDEEERKRKEAEAKLAQQKQEEERKKIEEQNEKERQLKKEHEAKLLQQKDKLGKAVTNFDKISKMFWHYKDKIAQIKQDIVLPIKKADVNVRNLLSRHKRKINPKFGQLTNSNQQLFKIQNELTQLINDTKGDSLAYHWILNFIAKAVVHQAETEVRVKPESALPLGKLTLYLLVQFPELQELFMARLVKKCPFVIGFTCEIDTEKGRQNMGWKRNNENKWEDNTSYDERMGGILSLFAIITRLQLPQEFITTTSHPFPIALSWHILARICNTPLNLITNTHFVILGSWWDAAAVQFLQAYGNQASKLLILIGEELTSRMAEKKYVGAARLRILLEAWQNNNMESFPEMSP
  Kd: 1800 nM
